# According to paper doi:10.1101/715409 (bioRxiv, 2019):
# T1: GST fusion to Boi1 (1-203) (Saccharomyces cerevisiae, UniProt P38041 1-203)
# T1 sequence: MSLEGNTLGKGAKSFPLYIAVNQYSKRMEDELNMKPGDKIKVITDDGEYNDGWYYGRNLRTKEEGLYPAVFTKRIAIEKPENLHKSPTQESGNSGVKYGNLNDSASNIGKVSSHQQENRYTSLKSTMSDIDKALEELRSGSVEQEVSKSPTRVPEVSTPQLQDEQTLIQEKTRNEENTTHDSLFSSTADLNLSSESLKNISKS
# B1: 6xHis Bud6_(1-141) (domain or fragment)
# chain: MKMAVDDPTYGTPKIKRTASSSSSIETTVTKLLMSTKHLLQVLTQWSKGTTSGRLVSDAYVQLGNDFKVVSKFFMHAKVDMSDVGDVPMALRRVLEVTLREPPSDETLNKHLPKIREIIVTLLDKLKVKQAILKNMQQEHR
# B2: GST fusion to Boi_(77-178) (domain or fragment)
# chain: IEKPENLHKSPTQESGNSGVKYGNLNDSASNIGKVSSHQQENRYTSLKSTMSDIDKALEELRSGSVEQEVSKSPTRVPEVSTPQLQDEQTLIQEKTRNEENT
# Assays:
# [1] = target: T1, GST fusion to Boi1 (1-203); experiment: pull-down
# [2] = target: B1; experiment: pull-down
binding result [1],binding result [2],Binder
binds,–,B1
–,binds,B2
